Experimental data reported in US5830703.
Where no end group is shown, it is not given here.

Target: sodium channel

flow of ^22 Na into cells [%] | Binder
30 | ARLDVASEFRKKWNKWALSR (ends and bridges not checked) [proadrenomedullin N-terminal 20 peptide (proAM-N20)]
70 | RKKWNKWALSR (ends and bridges not checked) [proadrenomedullin N-terminal 10-20 peptide (proAM-N(10-20))]
